The record followed here is PMC3695516.

In data set [1] the target is T1, chimp FOXP2 (truncated, WT) (chimpanzee, UniProt Q8MJA0 215-716).
T1 sequence: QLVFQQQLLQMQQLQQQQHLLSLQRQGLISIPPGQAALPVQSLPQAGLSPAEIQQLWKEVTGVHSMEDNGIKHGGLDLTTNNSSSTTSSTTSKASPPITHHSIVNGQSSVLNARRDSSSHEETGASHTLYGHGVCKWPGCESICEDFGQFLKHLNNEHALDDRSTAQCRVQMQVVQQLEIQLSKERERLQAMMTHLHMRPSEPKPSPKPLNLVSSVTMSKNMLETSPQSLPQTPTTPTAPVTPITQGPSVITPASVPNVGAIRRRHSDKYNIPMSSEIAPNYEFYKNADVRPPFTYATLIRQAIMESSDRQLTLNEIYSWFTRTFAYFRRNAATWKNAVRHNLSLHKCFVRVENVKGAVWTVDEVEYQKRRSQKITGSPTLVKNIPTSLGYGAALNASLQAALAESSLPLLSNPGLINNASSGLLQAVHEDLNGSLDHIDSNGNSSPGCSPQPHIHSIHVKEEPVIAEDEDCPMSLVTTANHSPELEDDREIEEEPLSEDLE
Put plainly: MITOMI.

Data set [2] has as its target T2, human FOXP2 (truncated, WT) (human, UniProt O15409 214-715).
T2 sequence: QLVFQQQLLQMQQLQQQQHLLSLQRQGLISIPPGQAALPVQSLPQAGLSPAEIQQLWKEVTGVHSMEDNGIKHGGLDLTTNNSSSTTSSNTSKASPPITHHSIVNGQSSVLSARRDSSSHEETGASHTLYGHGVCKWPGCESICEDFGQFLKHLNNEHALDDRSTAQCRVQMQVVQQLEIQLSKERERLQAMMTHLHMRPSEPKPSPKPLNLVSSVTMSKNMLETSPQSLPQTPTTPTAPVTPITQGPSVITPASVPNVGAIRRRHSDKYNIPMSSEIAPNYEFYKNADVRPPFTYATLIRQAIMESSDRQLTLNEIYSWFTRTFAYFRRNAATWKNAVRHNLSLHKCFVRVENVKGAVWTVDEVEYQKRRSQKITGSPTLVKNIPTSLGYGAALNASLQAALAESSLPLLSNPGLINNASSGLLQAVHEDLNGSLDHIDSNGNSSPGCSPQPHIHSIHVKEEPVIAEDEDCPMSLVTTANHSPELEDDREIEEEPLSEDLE
Put plainly: MITOMI.

B1: oligonucleotide #175 (dsDNA)
DNA 1: CGCCTGTTACGGCATCAGGGCTTTGGTTTGGGCGGGCTGCTTGTTTACCAATTGTCTCCGGCGGTATGAC
DNA 2: GTCATACCGCCGGAGACAATTGGTAAACAAGCAGCCCGCCCAAACCAAAGCCCTGATGCCGTAACAGGCG
As to B1, the binding result in data set [1] and in data set [2] was “binds” throughout.
